Experiments:
[1] = target: T1, ARID4A TD151 (Homo sapiens, UniProt P29374 4-151); assay: NMR titration; n = 3; 50 mM Tris-HCl pH 7.6, 50 mM NaCl (buffer A); ITC 25 C; EMSA 4 C, 12 uM DNA, 8% native gel in TBE; NMR titration by 1H-15N HSQC (temperature not stated for titration; buffer A also defined elsewhere as 20 mM phosphate, 100 mM NaCl, pH 7.0); settings: protein: recombinant; 5' overhang 1 nt on each strand (17 bp paired)
T1 sequence: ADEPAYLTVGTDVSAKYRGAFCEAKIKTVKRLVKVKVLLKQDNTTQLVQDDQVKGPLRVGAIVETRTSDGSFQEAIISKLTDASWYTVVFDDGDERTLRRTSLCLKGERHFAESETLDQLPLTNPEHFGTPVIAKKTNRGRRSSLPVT

[2] = target: T2, ARID4B TD151 (Homo sapiens, UniProt Q4LE39 1-151); assay: ITC; 50 mM Tris-HCl pH 7.6, 50 mM NaCl (buffer A); ITC 25 C; EMSA 4 C, 12 uM DNA, 8% native gel in TBE; NMR titration by 1H-15N HSQC (temperature not stated for titration; buffer A also defined elsewhere as 20 mM phosphate, 100 mM NaCl, pH 7.0); settings: protein: recombinant; chain copies: 3; 5' overhang 1 nt on each strand (17 bp paired)
T2 sequence: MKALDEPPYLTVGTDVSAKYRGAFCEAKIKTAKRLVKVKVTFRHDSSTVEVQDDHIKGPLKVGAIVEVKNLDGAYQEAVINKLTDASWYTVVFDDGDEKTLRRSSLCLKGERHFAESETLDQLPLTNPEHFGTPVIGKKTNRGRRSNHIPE

[3] = target: T3, ARID4B TD121 (Homo sapiens, UniProt Q4LE39 1-121); assay: NMR titration; n fixed 5; text says ~110; 50 mM Tris-HCl pH 7.6, 50 mM NaCl (buffer A); ITC 25 C; EMSA 4 C, 12 uM DNA, 8% native gel in TBE; NMR titration by 1H-15N HSQC (temperature not stated for titration; buffer A also defined elsewhere as 20 mM phosphate, 100 mM NaCl, pH 7.0); settings: protein: recombinant; 5' overhang 1 nt on each strand (17 bp paired)
T3 sequence: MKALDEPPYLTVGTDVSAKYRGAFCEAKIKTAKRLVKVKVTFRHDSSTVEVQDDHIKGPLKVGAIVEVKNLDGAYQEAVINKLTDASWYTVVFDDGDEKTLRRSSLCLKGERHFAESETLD

[4] = target: T2, ARID4B TD151; assay: NMR titration; n fixed 3; 50 mM Tris-HCl pH 7.6, 50 mM NaCl (buffer A); ITC 25 C; EMSA 4 C, 12 uM DNA, 8% native gel in TBE; NMR titration by 1H-15N HSQC (temperature not stated for titration; buffer A also defined elsewhere as 20 mM phosphate, 100 mM NaCl, pH 7.0); settings: protein: recombinant; chain copies: 3; 5' overhang 1 nt on each strand (17 bp paired)
[5] = target: T2, ARID4B TD151; assay: NMR titration; n fixed 2; 50 mM Tris-HCl pH 7.6, 50 mM NaCl (buffer A); ITC 25 C; EMSA 4 C, 12 uM DNA, 8% native gel in TBE; NMR titration by 1H-15N HSQC (temperature not stated for titration; buffer A also defined elsewhere as 20 mM phosphate, 100 mM NaCl, pH 7.0); settings: protein: recombinant; chain copies: 3; 5' overhang 1 nt on each strand (11 bp paired)
[6] = target: T3, ARID4B TD121; assay: NMR titration; n fixed 3; 50 mM Tris-HCl pH 7.6, 50 mM NaCl (buffer A); ITC 25 C; EMSA 4 C, 12 uM DNA, 8% native gel in TBE; NMR titration by 1H-15N HSQC (temperature not stated for titration; buffer A also defined elsewhere as 20 mM phosphate, 100 mM NaCl, pH 7.0); settings: protein: recombinant; 5' overhang 1 nt on each strand (11 bp paired)

| Binder | Kd [1] | Kd [2] | Kd [3] | Kd [4] | Kd [5] | Kd [6] |
| --- | --- | --- | --- | --- | --- | --- |
| dsDNA1 (dsDNA) DNA 1: CTCAGGTCAAAGGTCACG DNA 2: TCGTGACCTTTGACCTGA | 9.7 ± 0.9 µM | 27 ± 8 µM | 111 ± 2 µM | 22 µM |  |  |
| dsDNA2 (dsDNA) DNA 1: CTGTCAAAGGTG DNA 2: TCACCTTTGACA |  |  |  |  | 79 ± 3 µM | 237 ± 7 µM |
